Km and kcat data for 2 molecules are collected here from publication PMC6849719, “Characterization of the first naturally thermostable terpene synthases and development of strategies to improve thermostability in this family of enzymes” (The Febs Journal, 2017).

For data set [1], the system named is T1, CC(C)=CCC/C(C)=C/CC/C(C)=C/CO[P@@](=O)(O)OP(=O)(O)O.
T1 construct: full length (326 residues), N-terminal His6 tag (pET28a, NheI-EcoRI), codon-optimised gene, E. coli BL21(DE3); ~40 kDa
In words: purified protein. Type of data set: biochemical, Roseiflexus sp. RS-1. Conditions: 65 °C, 10 mM MgCl2, TS buffer (MES/Tris/CAPS, 100 mM NaCl), 1 μM enzyme, FPP 1.2-92 μM, commercial ammonium salt.

Substrate in data set [2]: CC(C)=CCC/C(C)=C/CC/C(C)=C/CO[P@@](=O)(O)OP(=O)(O)O
In words: purified protein. In kind it is biochemical, Roseiflexus castenholzii. The note with it: 65 °C, 10 mM MgCl2, TS buffer (MES/Tris/CAPS, 100 mM NaCl), 1 μM enzyme, FPP 1.2-92 μM, commercial ammonium salt.

RoseRS_3509 (Roseiflexus sp. RS-1): in data set [1], the Km – broadly, the concentration of substrate that gives half-maximal velocity – was found to be 87 ± 31 µM and the kcat (as a rule, the maximal rate divided by the concentration of active sites) turned out to be 0.95 ± 0.29 s⁻¹.

B1: Rcas_0622 (Roseiflexus castenholzii DSM 13941) (protein)
chain: MDQDYRARLVYPFSGAISPHADIVDQATLAWAAMFGLLTDSLRHKSRRLQYGLLAARAYPRADREMLQIAADWIAWLFFMDDQCDETGIGRDLQRMIALHERFLAILDGATPEAHDCALTYALADLRRRLALRAPDNWLRRFSEHVRLYFTANRWETVNRQRGATPNVATYCAARLFSGAVYACFDLIELAEQIELPFYARHHSIVQQLEQAANNIICWCNDVLSYPKEMQHGDRHNLVLVIQGEHQCSLPEAIDRALDLHAREVATFVRKRTCVPYFDAAVNTALEKYVTGLQFWICANRDWSLTATRYAPTHKSQEMVMAVAQQ
notes: full length, N-terminal His6 tag (pET28a, NheI-EcoRI), codon-optimised gene, E. coli BL21(DE3); ~40 kDa
For B1, in data set [2], the Km is 5.9 ± 2.0 µM and the kcat turned out to be 0.09 ± 0.008 s⁻¹.
